Measurements: the supplement of paper PMC9732359
± gives the uncertainty stated by the source.

Test: protein stability index of a GFP-peptide fusion (yeast GPS) (PSI 1-4); higher = more stable; sorted into four equal gates, so the index is relative within each strain
In short: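 The protein stability index of a peptide was calculated by multiplying its read frequency in each gate by that gate's number and adding the products. The peptides were tiled 17-residue stretches of yeast proteins, fused downstream of GFP on a Cherry-expressing plasmid and carried in yeast as a pooled library. Mid-log cultures in leucine-free medium were sorted into four equal gates by GFP/Cherry ratio, and each gate's plasmids were PCR-amplified and Illumina-sequenced.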

Row | Sequence | protein stability index (doa10∆) | protein stability index (pdr5∆) | protein stability index (san1∆) | protein stability index (ubr1∆)
1 | VVKGLPDISRAVINIRD [RPO31] | 2.83 ± 0.083 | 2.23 ± 0.097 | 2.6 ± 0.23 | 2.47 ± 0.083
2 | RQRELLIAHQRSAWNNN [GRR1] | 1.94 ± 0.045 | 2.24 ± 0.046 | 2.31 ± 0.06 | 2.16 ± 0.035
3 | SADDDVNNGNIPSQRGT [SIR3] | 2.97 ± 0.24 | 3.01 ± 0.1 | 2.67 ± 0.11 | 2.86 ± 0.11
4 | SNPSGNYTGWKAISVGA [PRE9] | 1.89 ± 0.073 | 2.5 ± 0.061 | 2.54 ± 0.086 | 2.22 ± 0.048
5 | MEERDGAKFENIVHNFK [AAR2] | 3.09 ± 0.1 | 2.51 ± 0.097 | 2.41 ± 0.12 | 1.88 ± 0.056
6 | PLILTPPQLANQQQPPQ [SNF11] | 1.53 ± 0.066 | 1.93 ± 0.071 | 2.04 ± 0.093 | 2.15 ± 0.069
7 | ARYYRTVAVLPPNWKYE [RPS13] | 1.89 ± 0.044 | 2.1 ± 0.039 | 2.18 ± 0.051 | 1.92 ± 0.029
8 | TSKQHKRSGHRTAPKSD [RPL18A] | 3.18 ± 0.23 | – | 3.1 ± 0.14 | 3.06 ± 0.2
9 | GYVSSLVEPSKVGQFDQ [FAS1] | 1.52 ± 0.082 | 1.94 ± 0.082 | 1.72 ± 0.12 | 1.91 ± 0.078
10 | FFDGSASSTPIPVLGKP [YOR098C/NUP1] | 2.6 ± 0.044 | 2.94 ± 0.04 | 2.72 ± 0.036 | 2.67 ± 0.026
11 | RGVRPYKHIDASGSINR [RPS19A] | 3.23 ± 0.089 | 3.42 ± 0.1 | 3.1 ± 0.062 | 3.23 ± 0.091
12 | GTCNGDITTSIMDNFLE [RPN1] | 2.77 ± 0.054 | 2.85 ± 0.057 | 2.86 ± 0.056 | 2.82 ± 0.068
13 | KLQFETDRLSTTQRRYE [SMC1] | 3.13 ± 0.094 | 3.3 ± 0.058 | 3.12 ± 0.086 | 3.12 ± 0.083
14 | DDDAVRREVQIQLQEFL [NSL1] | 3.28 ± 0.093 | 3.27 ± 0.1 | 3.36 ± 0.073 | 3.45 ± 0.089
15 | YQSPTIFKIVQSRLMST [MED6] | 1.71 ± 0.1 | 1.59 ± 0.13 | – | 1.96 ± 0.094
16 | RDVELSSDELKVIEEQL [SMC4] | 3.27 ± 0.058 | 3.25 ± 0.072 | 2.94 ± 0.054 | 3.26 ± 0.055
17 | NNIEENLRLLNSIDSTS [ECM29] | 3.21 ± 0.06 | 3.33 ± 0.057 | 3.18 ± 0.044 | 3.21 ± 0.046
18 | TSAKEPSENDVFYRMQQ [RPO31] | 3.08 ± 0.082 | 3.08 ± 0.092 | 3.13 ± 0.14 | 2.7 ± 0.099
19 | SVKFTHIAHTLPEKVNF [SSN2] | 2.17 ± 0.05 | 2.28 ± 0.042 | 2.2 ± 0.066 | 1.92 ± 0.029
20 | KLLFQELMAMNITPRLY [RPB2] | 1.27 ± 0.1 | 1.39 ± 0.066 | 1.24 ± 0.13 | 1.43 ± 0.048
21 | MKIQAGQLGLDDNDVPG [YLR018C/POM34] | 3.22 ± 0.19 | 3 ± 0.14 | 2.5 ± 0.21 | 3.11 ± 0.29
22 | QQLDSFNQFVDYTLQDI [RPB2] | 2.48 ± 0.094 | 2.64 ± 0.1 | 2.75 ± 0.052 | 2.43 ± 0.086
23 | GRSRDGGLRFGEMERDC [RPB2] | 2.86 ± 0.29 | – | 2.83 ± 0.17 | –
24 | PDKDYLLSIPISCPLIG [FAS1] | 1.28 ± 0.19 | 1.64 ± 0.13 | 1.25 ± 0.19 | 1.07 ± 0.077
25 | QRGKMHGLKQLRDSLAD [NUT2] | 3.04 ± 0.077 | 2.67 ± 0.062 | 1.48 ± 0.071 | 2.1 ± 0.06
26 | PCVEDGFVIQDRETALD [RPB2] | 3.17 ± 0.088 | 3.18 ± 0.11 | 3.16 ± 0.19 | 3.2 ± 0.078
